From patent US20140087995A1 (published 2014)
Numbered stars: 1 amine (or outer) side, 2 acyl side, 3 side chain; on linkers, the order of the positions; unused ones are H or OH. Bridge positions count the residues as written; N and C are the ends. Side chains are listed from the residue outwards. Ends that are not written are not given here. * marks the point of attachment. C20 diacid = O=C(O)CCCCCCCCCCCCCCCCCCC(=O)*; γGlu = O=C(O)[C@H](CCC(=O)[*:2])N[*:1]; AEEA = NCCOCCOCC(=O)O

T1: human amylin receptor (amylin 3(a) receptor: human calcitonin receptor with RAMP-3) (human, UniProt P30988 25-474; O60896 24-148)
T1 construct: whole, on cells; also called hAmylin-R; hAmylinR
T1 sequence (looked up) 1: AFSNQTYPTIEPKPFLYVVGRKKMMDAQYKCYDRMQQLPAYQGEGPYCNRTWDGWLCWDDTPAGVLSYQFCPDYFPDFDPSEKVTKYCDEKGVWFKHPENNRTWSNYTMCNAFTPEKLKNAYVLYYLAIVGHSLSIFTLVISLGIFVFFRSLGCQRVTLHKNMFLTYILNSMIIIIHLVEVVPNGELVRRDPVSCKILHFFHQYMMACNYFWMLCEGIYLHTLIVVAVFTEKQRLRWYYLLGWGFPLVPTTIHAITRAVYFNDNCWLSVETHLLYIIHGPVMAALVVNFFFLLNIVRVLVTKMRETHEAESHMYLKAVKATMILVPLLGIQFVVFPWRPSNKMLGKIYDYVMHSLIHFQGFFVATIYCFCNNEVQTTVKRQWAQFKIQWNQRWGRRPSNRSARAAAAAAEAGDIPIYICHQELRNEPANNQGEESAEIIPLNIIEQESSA
T1 sequence (looked up) 2: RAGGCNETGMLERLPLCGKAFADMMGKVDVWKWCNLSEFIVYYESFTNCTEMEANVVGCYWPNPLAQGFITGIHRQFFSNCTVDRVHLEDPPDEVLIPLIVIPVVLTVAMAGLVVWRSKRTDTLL


Biological target: T1, human amylin receptor (amylin 3(a) …)
Assay: SPA displacement of 125I-rat amylin, hAmylin 3(a) receptor membranes
Procedure, shortened: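 Membranes from BHK Amylin 3(a)/CRE-luc cells (35 ng/μL final) were mixed with SPA beads and test compounds in 50 mM Hepes pH 7.4 with 1 mM CaCl2, 5 mM MgCl₂, 0.1% OA and 0.02% Tween20. Incubation ran 120 min at 25° C with shaking; IC₅₀ came from one-site competition fitting.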

Binder | IC50 [nM]
K([AEEA-γGlu-C20 diacid])CNTATCATQRLARFLRHSSPNFGAIPSSTNVGSNTY-NH2 (disulfide 2-7; N-terminus assumed; SMILES CC[C@H](C)[C@H](NC(=O)[C@H](C)NC(=O)CNC(=O)[C@H](Cc1ccccc1)NC(=O)[C@H](CC(N)=O)NC(=O)[C@@H]1CCCN1C(=O)[C@H](CO)NC(=O)[C@H](CO)NC(=O)[C@H](Cc1c[nH]cn1)NC(=O)[C@H](CCCNC(=N)N)NC(=O)[C@H](CC(C)C)NC(=O)[C@H](Cc1ccccc1)NC(=O)[C@H](CCCNC(=N)N)NC(=O)[C@H](C)NC(=O)[C@H](CC(C)C)NC(=O)[C@H](CCCNC(=N)N)NC(=O)[C@H](CCC(N)=O)NC(=O)[C@@H](NC(=O)[C@H](C)NC(=O)[C@@H]1CSSC[C@H](NC(=O)[C@@H](N)CCCCNC(=O)COCCOCCNC(=O)CC[C@H](NC(=O)CCCCCCCCCCCCCCCCCCC(=O)O)C(=O)O)C(=O)N[C@@H](CC(N)=O)C(=O)N[C@@H]([C@@H](C)O)C(=O)N[C@@H](C)C(=O)N[C@@H]([C@@H](C)O)C(=O)N1)[C@@H](C)O)C(=O)N1CCC[C@H]1C(=O)N[C@@H](CO)C(=O)N[C@@H](CO)C(=O)N[C@H](C(=O)N[C@@H](CC(N)=O)C(=O)N[C@H](C(=O)NCC(=O)N[C@@H](CO)C(=O)N[C@@H](CC(N)=O)C(=O)N[C@H](C(=O)N[C@@H](Cc1ccc(O)cc1)C(N)=O)[C@@H](C)O)C(C)C)[C@@H](C)O, also called 82; compound 82) | 0.636
K([AEEA-γGlu-C20 diacid])CNTATCATQRLANFLRHSSPNFGAIPSSTNVGSETY-NH2 (disulfide 2-7; N-terminus assumed; SMILES CC[C@H](C)[C@H](NC(=O)[C@H](C)NC(=O)CNC(=O)[C@H](Cc1ccccc1)NC(=O)[C@H](CC(N)=O)NC(=O)[C@@H]1CCCN1C(=O)[C@H](CO)NC(=O)[C@H](CO)NC(=O)[C@H](Cc1c[nH]cn1)NC(=O)[C@H](CCCNC(=N)N)NC(=O)[C@H](CC(C)C)NC(=O)[C@H](Cc1ccccc1)NC(=O)[C@H](CC(N)=O)NC(=O)[C@H](C)NC(=O)[C@H](CC(C)C)NC(=O)[C@H](CCCNC(=N)N)NC(=O)[C@H](CCC(N)=O)NC(=O)[C@@H](NC(=O)[C@H](C)NC(=O)[C@@H]1CSSC[C@H](NC(=O)[C@@H](N)CCCCNC(=O)COCCOCCNC(=O)CC[C@H](NC(=O)CCCCCCCCCCCCCCCCCCC(=O)O)C(=O)O)C(=O)N[C@@H](CC(N)=O)C(=O)N[C@@H]([C@@H](C)O)C(=O)N[C@@H](C)C(=O)N[C@@H]([C@@H](C)O)C(=O)N1)[C@@H](C)O)C(=O)N1CCC[C@H]1C(=O)N[C@@H](CO)C(=O)N[C@@H](CO)C(=O)N[C@H](C(=O)N[C@@H](CC(N)=O)C(=O)N[C@H](C(=O)NCC(=O)N[C@@H](CO)C(=O)N[C@@H](CCC(=O)O)C(=O)N[C@H](C(=O)N[C@@H](Cc1ccc(O)cc1)C(N)=O)[C@@H](C)O)C(C)C)[C@@H](C)O, also called 26; compound 26) | 0.532
K([AEEA-γGlu-C20 diacid])CNTATCATQRLANFLRHSSPNFGAIPSSTNVGRNTY-NH2 (disulfide 2-7; N-terminus assumed; SMILES CC[C@H](C)[C@H](NC(=O)[C@H](C)NC(=O)CNC(=O)[C@H](Cc1ccccc1)NC(=O)[C@H](CC(N)=O)NC(=O)[C@@H]1CCCN1C(=O)[C@H](CO)NC(=O)[C@H](CO)NC(=O)[C@H](Cc1c[nH]cn1)NC(=O)[C@H](CCCNC(=N)N)NC(=O)[C@H](CC(C)C)NC(=O)[C@H](Cc1ccccc1)NC(=O)[C@H](CC(N)=O)NC(=O)[C@H](C)NC(=O)[C@H](CC(C)C)NC(=O)[C@H](CCCNC(=N)N)NC(=O)[C@H](CCC(N)=O)NC(=O)[C@@H](NC(=O)[C@H](C)NC(=O)[C@@H]1CSSC[C@H](NC(=O)[C@@H](N)CCCCNC(=O)COCCOCCNC(=O)CC[C@H](NC(=O)CCCCCCCCCCCCCCCCCCC(=O)O)C(=O)O)C(=O)N[C@@H](CC(N)=O)C(=O)N[C@@H]([C@@H](C)O)C(=O)N[C@@H](C)C(=O)N[C@@H]([C@@H](C)O)C(=O)N1)[C@@H](C)O)C(=O)N1CCC[C@H]1C(=O)N[C@@H](CO)C(=O)N[C@@H](CO)C(=O)N[C@H](C(=O)N[C@@H](CC(N)=O)C(=O)N[C@H](C(=O)NCC(=O)N[C@@H](CCCNC(=N)N)C(=O)N[C@@H](CC(N)=O)C(=O)N[C@H](C(=O)N[C@@H](Cc1ccc(O)cc1)C(N)=O)[C@@H](C)O)C(C)C)[C@@H](C)O, also called 78; compound 78) | 0.602

These reach a lower IC50. Values come first.

IC50 [nM] | Binder
0.444 | K([AEEA-γGlu-C20 diacid])CNTATCATQRLARFLRHSSPNFGAIPSSTPVGSNTY-NH2 (disulfide 2-7; N-terminus assumed; SMILES CC[C@H](C)[C@H](NC(=O)[C@H](C)NC(=O)CNC(=O)[C@H](Cc1ccccc1)NC(=O)[C@H](CC(N)=O)NC(=O)[C@@H]1CCCN1C(=O)[C@H](CO)NC(=O)[C@H](CO)NC(=O)[C@H](Cc1c[nH]cn1)NC(=O)[C@H](CCCNC(=N)N)NC(=O)[C@H](CC(C)C)NC(=O)[C@H](Cc1ccccc1)NC(=O)[C@H](CCCNC(=N)N)NC(=O)[C@H](C)NC(=O)[C@H](CC(C)C)NC(=O)[C@H](CCCNC(=N)N)NC(=O)[C@H](CCC(N)=O)NC(=O)[C@@H](NC(=O)[C@H](C)NC(=O)[C@@H]1CSSC[C@H](NC(=O)[C@@H](N)CCCCNC(=O)COCCOCCNC(=O)CC[C@H](NC(=O)CCCCCCCCCCCCCCCCCCC(=O)O)C(=O)O)C(=O)N[C@@H](CC(N)=O)C(=O)N[C@@H]([C@@H](C)O)C(=O)N[C@@H](C)C(=O)N[C@@H]([C@@H](C)O)C(=O)N1)[C@@H](C)O)C(=O)N1CCC[C@H]1C(=O)N[C@@H](CO)C(=O)N[C@@H](CO)C(=O)N[C@H](C(=O)N1CCC[C@H]1C(=O)N[C@H](C(=O)NCC(=O)N[C@@H](CO)C(=O)N[C@@H](CC(N)=O)C(=O)N[C@H](C(=O)N[C@@H](Cc1ccc(O)cc1)C(N)=O)[C@@H](C)O)C(C)C)[C@@H](C)O, also called 64; compound 64)
0.052 | K([AEEA-γGlu-C20 diacid])CNTATCATQRLANFLRHSSPNFGAIPPSTPVGSNTY-NH2 (disulfide 2-7, also called 53; compound 53)
0.215 | K([AEEA-γGlu-C20 diacid])CNTATCATQRLANFLRHSSPNFGAIPSSTNVGHNTY-NH2 (disulfide 2-7; N-terminus assumed; SMILES CC[C@H](C)[C@H](NC(=O)[C@H](C)NC(=O)CNC(=O)[C@H](Cc1ccccc1)NC(=O)[C@H](CC(N)=O)NC(=O)[C@@H]1CCCN1C(=O)[C@H](CO)NC(=O)[C@H](CO)NC(=O)[C@H](Cc1c[nH]cn1)NC(=O)[C@H](CCCNC(=N)N)NC(=O)[C@H](CC(C)C)NC(=O)[C@H](Cc1ccccc1)NC(=O)[C@H](CC(N)=O)NC(=O)[C@H](C)NC(=O)[C@H](CC(C)C)NC(=O)[C@H](CCCNC(=N)N)NC(=O)[C@H](CCC(N)=O)NC(=O)[C@@H](NC(=O)[C@H](C)NC(=O)[C@@H]1CSSC[C@H](NC(=O)[C@@H](N)CCCCNC(=O)COCCOCCNC(=O)CC[C@H](NC(=O)CCCCCCCCCCCCCCCCCCC(=O)O)C(=O)O)C(=O)N[C@@H](CC(N)=O)C(=O)N[C@@H]([C@@H](C)O)C(=O)N[C@@H](C)C(=O)N[C@@H]([C@@H](C)O)C(=O)N1)[C@@H](C)O)C(=O)N1CCC[C@H]1C(=O)N[C@@H](CO)C(=O)N[C@@H](CO)C(=O)N[C@H](C(=O)N[C@@H](CC(N)=O)C(=O)N[C@H](C(=O)NCC(=O)N[C@@H](Cc1c[nH]cn1)C(=O)N[C@@H](CC(N)=O)C(=O)N[C@H](C(=O)N[C@@H](Cc1ccc(O)cc1)C(N)=O)[C@@H](C)O)C(C)C)[C@@H](C)O, also called 76; compound 76)
0.249 | K([AEEA-γGlu-C20 diacid])CNTATCATQRLANFLRHSSPNFGAIPSSTNVGSRTY-NH2 (disulfide 2-7; N-terminus assumed; SMILES CC[C@H](C)[C@H](NC(=O)[C@H](C)NC(=O)CNC(=O)[C@H](Cc1ccccc1)NC(=O)[C@H](CC(N)=O)NC(=O)[C@@H]1CCCN1C(=O)[C@H](CO)NC(=O)[C@H](CO)NC(=O)[C@H](Cc1c[nH]cn1)NC(=O)[C@H](CCCNC(=N)N)NC(=O)[C@H](CC(C)C)NC(=O)[C@H](Cc1ccccc1)NC(=O)[C@H](CC(N)=O)NC(=O)[C@H](C)NC(=O)[C@H](CC(C)C)NC(=O)[C@H](CCCNC(=N)N)NC(=O)[C@H](CCC(N)=O)NC(=O)[C@@H](NC(=O)[C@H](C)NC(=O)[C@@H]1CSSC[C@H](NC(=O)[C@@H](N)CCCCNC(=O)COCCOCCNC(=O)CC[C@H](NC(=O)CCCCCCCCCCCCCCCCCCC(=O)O)C(=O)O)C(=O)N[C@@H](CC(N)=O)C(=O)N[C@@H]([C@@H](C)O)C(=O)N[C@@H](C)C(=O)N[C@@H]([C@@H](C)O)C(=O)N1)[C@@H](C)O)C(=O)N1CCC[C@H]1C(=O)N[C@@H](CO)C(=O)N[C@@H](CO)C(=O)N[C@H](C(=O)N[C@@H](CC(N)=O)C(=O)N[C@H](C(=O)NCC(=O)N[C@@H](CO)C(=O)N[C@@H](CCCNC(=N)N)C(=O)N[C@H](C(=O)N[C@@H](Cc1ccc(O)cc1)C(N)=O)[C@@H](C)O)C(C)C)[C@@H](C)O, also called 38; compound 38)
